Results reported in patent US9957297B2, “Template-fixed peptidomimetics as inhibitors of FPR1” (POLYPHOR AG, priority 2011, dated 2018).
Bridges are numbered along the chain shown (N, C = ends). [ ]: non-standard residue; d: D form. dTic = O=C(O)[C@H]1Cc2ccccc2CN1; hSer = N[C@@H](CCO)C(=O)O; Orn = NCCC[C@H](N)C(=O)O; Dab = NCC[C@H](N)C(=O)O

T1: Formyl-Peptide Receptor 1 (UniProt P21462 1-350, limits assumed)
T1 sequence (looked up): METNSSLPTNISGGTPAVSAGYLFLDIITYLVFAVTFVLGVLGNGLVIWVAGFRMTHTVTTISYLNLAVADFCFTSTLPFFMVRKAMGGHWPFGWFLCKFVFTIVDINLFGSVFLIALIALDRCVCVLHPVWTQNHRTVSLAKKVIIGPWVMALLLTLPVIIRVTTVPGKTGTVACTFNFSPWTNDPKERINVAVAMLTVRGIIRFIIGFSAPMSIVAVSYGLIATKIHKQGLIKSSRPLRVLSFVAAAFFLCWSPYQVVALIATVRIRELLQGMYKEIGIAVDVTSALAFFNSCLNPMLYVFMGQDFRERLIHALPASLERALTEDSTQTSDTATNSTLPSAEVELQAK

B1: cyclo(-Gly-His-Lys-Cys-His-Gly-^DPro-Trp-Thr-Ile-Cys-Tyr-Glu-Lys-^DPro-Pro-) (peptide)
peptide: cyclo(GHKCHG[dP]WTICYEK[dP]P)
modifications: disulfide 4-11
SMILES: CC[C@H](C)[C@@H]1NC(=O)[C@H]([C@@H](C)O)NC(=O)[C@H](Cc2c[nH]c3ccccc23)NC(=O)[C@H]2CCCN2C(=O)CNC(=O)[C@H](Cc2c[nH]cn2)NC(=O)[C@@H]2CSSC[C@H](NC1=O)C(=O)N[C@@H](Cc1ccc(O)cc1)C(=O)N[C@@H](CCC(=O)O)C(=O)N[C@@H](CCCCN)C(=O)N1CCC[C@@H]1C(=O)N1CCC[C@H]1C(=O)NCC(=O)N[C@@H](Cc1c[nH]cn1)C(=O)N[C@@H](CCCCN)C(=O)N2
B2: cyclo(-Tyr-His-Lys-Cys-His-Gly-^DPro-Trp-Thr-Ile-Cys-Tyr-Glu-Hse-^DPro-Pro-) (peptide)
peptide: cyclo(YHKCHG[dP]WTICYE[hSer][dP]P)
modifications: disulfide 4-11
SMILES: CC[C@H](C)[C@@H]1NC(=O)[C@H]([C@@H](C)O)NC(=O)[C@H](Cc2c[nH]c3ccccc23)NC(=O)[C@H]2CCCN2C(=O)CNC(=O)[C@H](Cc2c[nH]cn2)NC(=O)[C@@H]2CSSC[C@H](NC1=O)C(=O)N[C@@H](Cc1ccc(O)cc1)C(=O)N[C@@H](CCC(=O)O)C(=O)N[C@@H](CCO)C(=O)N1CCC[C@@H]1C(=O)N1CCC[C@H]1C(=O)N[C@@H](Cc1ccc(O)cc1)C(=O)N[C@@H](Cc1c[nH]cn1)C(=O)N[C@@H](CCCCN)C(=O)N2
B3: cyclo(-Tyr-His-Lys-Cys-His-Gly-^DPro-Trp-Thr-Ile-Cys-Tyr-Glu-Dab-^DPro-Pro-) (peptide)
peptide: cyclo(YHKCHG[dP]WTICYE[Dab][dP]P)
modifications: disulfide 4-11
SMILES: CC[C@H](C)[C@@H]1NC(=O)[C@H]([C@@H](C)O)NC(=O)[C@H](Cc2c[nH]c3ccccc23)NC(=O)[C@H]2CCCN2C(=O)CNC(=O)[C@H](Cc2c[nH]cn2)NC(=O)[C@@H]2CSSC[C@H](NC1=O)C(=O)N[C@@H](Cc1ccc(O)cc1)C(=O)N[C@@H](CCC(=O)O)C(=O)N[C@@H](CCN)C(=O)N1CCC[C@@H]1C(=O)N1CCC[C@H]1C(=O)N[C@@H](Cc1ccc(O)cc1)C(=O)N[C@@H](Cc1c[nH]cn1)C(=O)N[C@@H](CCCCN)C(=O)N2
B4: cyclo(-Tyr-His-Lys-Cys-His-Gly-^DPro-Trp-Thr-Ile-Cys-Tyr-Asp-Lys-^DPro-Pro-) (peptide)
peptide: cyclo(YHKCHG[dP]WTICYDK[dP]P)
modifications: disulfide 4-11
SMILES: CC[C@H](C)[C@@H]1NC(=O)[C@H]([C@@H](C)O)NC(=O)[C@H](Cc2c[nH]c3ccccc23)NC(=O)[C@H]2CCCN2C(=O)CNC(=O)[C@H](Cc2c[nH]cn2)NC(=O)[C@@H]2CSSC[C@H](NC1=O)C(=O)N[C@@H](Cc1ccc(O)cc1)C(=O)N[C@@H](CC(=O)O)C(=O)N[C@@H](CCCCN)C(=O)N1CCC[C@@H]1C(=O)N1CCC[C@H]1C(=O)N[C@@H](Cc1ccc(O)cc1)C(=O)N[C@@H](Cc1c[nH]cn1)C(=O)N[C@@H](CCCCN)C(=O)N2
B5: cyclo(-Tyr-His-Lys-Cys-His-Gly-^DPro-Trp-Thr-Ile-Cys-Tyr-Glu-Lys-^DAla-Glu-) (peptide)
peptide: cyclo(YHKCHG[dP]WTICYEK[dA]E)
modifications: disulfide 4-11
SMILES: CC[C@H](C)[C@@H]1NC(=O)[C@H]([C@@H](C)O)NC(=O)[C@H](Cc2c[nH]c3ccccc23)NC(=O)[C@H]2CCCN2C(=O)CNC(=O)[C@H](Cc2c[nH]cn2)NC(=O)[C@@H]2CSSC[C@H](NC1=O)C(=O)N[C@@H](Cc1ccc(O)cc1)C(=O)N[C@@H](CCC(=O)O)C(=O)N[C@@H](CCCCN)C(=O)N[C@H](C)C(=O)N[C@@H](CCC(=O)O)C(=O)N[C@@H](Cc1ccc(O)cc1)C(=O)N[C@@H](Cc1c[nH]cn1)C(=O)N[C@@H](CCCCN)C(=O)N2
B6: cyclo(-Tyr-His-Lys-Cys-His-Gly-^DPro-Trp-Thr-Ile-Cys-Tyr-Glu-His-^DPro-Pro-) (peptide)
peptide: cyclo(YHKCHG[dP]WTICYEH[dP]P)
modifications: disulfide 4-11
SMILES: CC[C@H](C)[C@@H]1NC(=O)[C@H]([C@@H](C)O)NC(=O)[C@H](Cc2c[nH]c3ccccc23)NC(=O)[C@H]2CCCN2C(=O)CNC(=O)[C@H](Cc2c[nH]cn2)NC(=O)[C@@H]2CSSC[C@H](NC1=O)C(=O)N[C@@H](Cc1ccc(O)cc1)C(=O)N[C@@H](CCC(=O)O)C(=O)N[C@@H](Cc1c[nH]cn1)C(=O)N1CCC[C@@H]1C(=O)N1CCC[C@H]1C(=O)N[C@@H](Cc1ccc(O)cc1)C(=O)N[C@@H](Cc1c[nH]cn1)C(=O)N[C@@H](CCCCN)C(=O)N2
B7: cyclo(-Tyr-His-Lys-Cys-His-Gly-^DPro-Trp-Thr-Ile-Cys-Tyr-Trp-Lys-^DPro-Pro-) (peptide)
peptide: cyclo(YHKCHG[dP]WTICYWK[dP]P)
modifications: disulfide 4-11
SMILES: CC[C@H](C)[C@@H]1NC(=O)[C@H]([C@@H](C)O)NC(=O)[C@H](Cc2c[nH]c3ccccc23)NC(=O)[C@H]2CCCN2C(=O)CNC(=O)[C@H](Cc2c[nH]cn2)NC(=O)[C@@H]2CSSC[C@H](NC1=O)C(=O)N[C@@H](Cc1ccc(O)cc1)C(=O)N[C@@H](Cc1c[nH]c3ccccc13)C(=O)N[C@@H](CCCCN)C(=O)N1CCC[C@@H]1C(=O)N1CCC[C@H]1C(=O)N[C@@H](Cc1ccc(O)cc1)C(=O)N[C@@H](Cc1c[nH]cn1)C(=O)N[C@@H](CCCCN)C(=O)N2
B8: cyclo(-Tyr-His-Lys-Cys-His-Gly-^DTic-Trp-Thr-Ile-Cys-Tyr-Glu-Lys-^DPro-Pro-) (peptide)
peptide: cyclo(YHKCHG[dTic]WTICYEK[dP]P)
modifications: disulfide 4-11
SMILES: CC[C@H](C)[C@@H]1NC(=O)[C@H]([C@@H](C)O)NC(=O)[C@H](Cc2c[nH]c3ccccc23)NC(=O)[C@H]2Cc3ccccc3CN2C(=O)CNC(=O)[C@H](Cc2c[nH]cn2)NC(=O)[C@@H]2CSSC[C@H](NC1=O)C(=O)N[C@@H](Cc1ccc(O)cc1)C(=O)N[C@@H](CCC(=O)O)C(=O)N[C@@H](CCCCN)C(=O)N1CCC[C@@H]1C(=O)N1CCC[C@H]1C(=O)N[C@@H](Cc1ccc(O)cc1)C(=O)N[C@@H](Cc1c[nH]cn1)C(=O)N[C@@H](CCCCN)C(=O)N2
B9: cyclo(-Tyr-His-Lys-Cys-His-Gly-^DPro-Trp-Thr-Ile-Cys-Tyr-Glu-Gly-^DPro-Pro-) (peptide)
peptide: cyclo(YHKCHG[dP]WTICYEG[dP]P)
modifications: disulfide 4-11
SMILES: CC[C@H](C)[C@@H]1NC(=O)[C@H]([C@@H](C)O)NC(=O)[C@H](Cc2c[nH]c3ccccc23)NC(=O)[C@H]2CCCN2C(=O)CNC(=O)[C@H](Cc2c[nH]cn2)NC(=O)[C@@H]2CSSC[C@H](NC1=O)C(=O)N[C@@H](Cc1ccc(O)cc1)C(=O)N[C@@H](CCC(=O)O)C(=O)NCC(=O)N1CCC[C@@H]1C(=O)N1CCC[C@H]1C(=O)N[C@@H](Cc1ccc(O)cc1)C(=O)N[C@@H](Cc1c[nH]cn1)C(=O)N[C@@H](CCCCN)C(=O)N2
B10: cyclo(-Tyr-His-Lys-Cys-His-Gly-^DPro-Trp-Thr-Ile-Cys-Tyr-Glu-Thr-^DPro-Pro-) (peptide)
peptide: cyclo(YHKCHG[dP]WTICYET[dP]P)
modifications: disulfide 4-11
SMILES: CC[C@H](C)[C@@H]1NC(=O)[C@H]([C@@H](C)O)NC(=O)[C@H](Cc2c[nH]c3ccccc23)NC(=O)[C@H]2CCCN2C(=O)CNC(=O)[C@H](Cc2c[nH]cn2)NC(=O)[C@@H]2CSSC[C@H](NC1=O)C(=O)N[C@@H](Cc1ccc(O)cc1)C(=O)N[C@@H](CCC(=O)O)C(=O)N[C@@H]([C@@H](C)O)C(=O)N1CCC[C@@H]1C(=O)N1CCC[C@H]1C(=O)N[C@@H](Cc1ccc(O)cc1)C(=O)N[C@@H](Cc1c[nH]cn1)C(=O)N[C@@H](CCCCN)C(=O)N2

Biological target: T1, Formyl-Peptide Receptor 1
Experiment: cell-based or functional assay

Row | Binder | β-Arrestin IC50 [nM]
1 | B1 | 111
2 | B2 | 24
3 | B3 | 82
4 | B4 | 37
5 | B5 | 124
6 | B6 | 73
7 | B7 | 15
8 | B8 | 21
9 | cyclo(YHKCHG[dP]WTICYEK[dP]P) (disulfide 4-11) [cyclo(-Tyr-His-Lys-Cys-His-Gly-^DPro-Trp-Thr-Ile-Cys-Tyr-Glu-Lys-^DPro-Pro-)] | 44
10 | B9 | 250
11 | B10 | 197
12 | cyclo(YH[Orn]CHG[dP]WTICYEK[dP]P) (disulfide 4-11) [cyclo(-Tyr-His-Orn-Cys-His-Gly-^DPro-Trp-Thr-Ile-Cys-Tyr-Glu-Lys-^DPro-Pro-)] | 313
